According to paper doi:10.1101/2024.12.03.626679, “Structure of the SMYD2-PARP1 Complex Reveals Both Productive and Allosteric Modes of Peptide Binding” (bioRxiv, 2024):

What was measured:
[1] = biological target: T1, Full-length human SMYD2 (residues 1-433), wild type (human, UniProt Q9NRG4 1-433); experiment: ITC; NanoITC SV, 27°C, 25 mM Tris pH 7.5, 50 mM NaCl; 40 μM SMYD2 in the cell, 631 μM PARP1 peptide in the syringe, 16 injections of 15 μL; one-site, two-site and binding polynomial models; conditions: both partners purified
T1 construct: SMYD2, human, full length, residues 1-433; Tag cut off with yeast SUMO Protease 1, native N-terminus; Crystals held AdoHcy; also called SMYD2-WT; wild-type SMYD2; not shown: 6xHis-SUMO, N-terminal, cleaved

SMYD2-L351A/W356A = SMYD2-L351A/W356A (human, UniProt Q9NRG4 1-433, L351A | W356A); experiment: cell-based or functional assay
Sequence of SMYD2-L351A/W356A (Q9NRG4 whole entry L351A/W356A): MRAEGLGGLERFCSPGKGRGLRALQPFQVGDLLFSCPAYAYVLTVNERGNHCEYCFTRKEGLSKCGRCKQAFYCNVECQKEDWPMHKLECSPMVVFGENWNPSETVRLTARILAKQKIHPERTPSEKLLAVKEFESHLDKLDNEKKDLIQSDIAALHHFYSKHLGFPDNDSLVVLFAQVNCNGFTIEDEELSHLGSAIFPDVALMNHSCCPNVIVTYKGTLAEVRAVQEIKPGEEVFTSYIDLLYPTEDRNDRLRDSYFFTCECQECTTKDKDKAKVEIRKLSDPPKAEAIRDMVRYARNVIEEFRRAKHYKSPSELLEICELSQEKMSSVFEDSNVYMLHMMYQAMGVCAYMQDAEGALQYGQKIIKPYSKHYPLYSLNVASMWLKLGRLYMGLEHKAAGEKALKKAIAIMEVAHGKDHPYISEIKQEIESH

T1 sequence (Q9NRG4 whole entry, the tested form may be a part): as the sequence (Q9NRG4 whole entry L351A/W356A) above, with A351L, A356W counted along it

B1: PARP1 peptide (13-residue synthetic peptide, human PARP1 residues 522-534) (peptide)
peptide: RMKLTLKGGAAVD
notes: PARP1, human, residues 522-534, holds the target lysine Lys528; also called Lys528-containing PARP1 peptide; source: synthetic peptide (CPC Scientific)
With B1 the “dH1 (binding polynomial)” value [1] was -4.2 kJ/mol, the “dH2 (binding polynomial)” value [1] was -7.2 kJ/mol and the “stoichiometry N” value [1] was 2. For the same binder, the “KM of steady-state methyltransferase kinetics (MTase-Glo) with the PARP1 peptide as substrate, against wild-type SMYD2” value (SMYD2-L351A/W356A) was 4 fold.
